This is an account of results in patent publication US20120213763A1 (COUNCIL OF SCIENTIFIC AND INDUSTRIAL RESEARCH, published 2012).

Several values for one entry are separate records, joined by “and”; a condition that tells them apart may be missing. Equal values may be shown once.

For series [1], the target named is PEG Variants of SEQ ID NO 23 (PEGylated Cysteine variants of fibrin domain fusion form of SK).
For series [2], the target named is T1, PEGylated SK C-Cys (SEQ ID NO 490), Cys at C + 1 position in SK.
T1 chain: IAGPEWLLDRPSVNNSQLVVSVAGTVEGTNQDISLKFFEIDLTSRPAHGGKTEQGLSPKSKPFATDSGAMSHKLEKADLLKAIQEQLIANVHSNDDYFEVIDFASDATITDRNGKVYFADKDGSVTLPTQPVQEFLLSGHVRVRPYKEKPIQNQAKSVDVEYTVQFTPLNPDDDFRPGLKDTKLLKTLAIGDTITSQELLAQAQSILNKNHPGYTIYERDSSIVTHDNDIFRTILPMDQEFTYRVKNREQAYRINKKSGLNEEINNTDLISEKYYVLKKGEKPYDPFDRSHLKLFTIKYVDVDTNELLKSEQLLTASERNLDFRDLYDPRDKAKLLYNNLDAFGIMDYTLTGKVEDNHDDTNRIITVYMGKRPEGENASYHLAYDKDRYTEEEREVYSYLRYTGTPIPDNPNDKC

In series [3] the target is T2, PEGylated SK K121C (SEQ ID NO 35).
T2 chain: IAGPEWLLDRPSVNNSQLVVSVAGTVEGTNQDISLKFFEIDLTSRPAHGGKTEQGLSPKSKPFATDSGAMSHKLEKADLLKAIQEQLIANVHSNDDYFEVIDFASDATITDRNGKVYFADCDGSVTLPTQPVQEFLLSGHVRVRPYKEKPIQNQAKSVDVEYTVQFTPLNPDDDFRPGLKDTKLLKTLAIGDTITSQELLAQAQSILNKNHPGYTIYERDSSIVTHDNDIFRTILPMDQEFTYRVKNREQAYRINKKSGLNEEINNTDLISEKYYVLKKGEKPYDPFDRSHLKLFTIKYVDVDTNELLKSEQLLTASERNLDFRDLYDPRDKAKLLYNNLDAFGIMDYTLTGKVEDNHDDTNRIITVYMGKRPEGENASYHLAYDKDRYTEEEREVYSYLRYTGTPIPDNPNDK

Series [4] concerns the target T3, PEGylated SK L179C (SEQ ID NO 41).
T3 chain: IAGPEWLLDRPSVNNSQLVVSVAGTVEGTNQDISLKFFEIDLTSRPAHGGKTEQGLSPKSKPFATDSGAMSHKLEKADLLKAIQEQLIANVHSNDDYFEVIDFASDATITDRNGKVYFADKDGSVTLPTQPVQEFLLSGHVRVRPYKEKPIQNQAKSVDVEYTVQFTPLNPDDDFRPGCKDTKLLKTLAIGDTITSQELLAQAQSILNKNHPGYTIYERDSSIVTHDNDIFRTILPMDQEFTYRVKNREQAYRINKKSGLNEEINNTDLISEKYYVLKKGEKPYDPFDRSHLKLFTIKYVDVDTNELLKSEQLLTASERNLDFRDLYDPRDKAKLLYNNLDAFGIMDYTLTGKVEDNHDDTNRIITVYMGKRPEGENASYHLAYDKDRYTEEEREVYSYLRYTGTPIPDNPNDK

For series [5], the target named is T4, PEGylated SK L260C (SEQ ID NO 50).
T4 chain: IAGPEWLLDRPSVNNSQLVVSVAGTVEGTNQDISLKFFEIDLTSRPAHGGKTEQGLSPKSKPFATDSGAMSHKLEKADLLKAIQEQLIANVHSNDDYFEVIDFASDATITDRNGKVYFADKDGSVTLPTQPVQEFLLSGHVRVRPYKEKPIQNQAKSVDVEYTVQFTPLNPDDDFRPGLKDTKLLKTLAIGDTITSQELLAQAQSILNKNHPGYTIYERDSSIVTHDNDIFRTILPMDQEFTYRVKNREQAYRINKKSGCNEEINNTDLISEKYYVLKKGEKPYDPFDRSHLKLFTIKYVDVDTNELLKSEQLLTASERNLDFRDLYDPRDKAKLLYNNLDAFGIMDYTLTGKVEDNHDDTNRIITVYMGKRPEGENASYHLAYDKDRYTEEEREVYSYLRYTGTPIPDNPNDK

Series [6] has as its target T5, PEGylated SK Ser 258 Cys (SEQ ID NO 49).
T5 chain: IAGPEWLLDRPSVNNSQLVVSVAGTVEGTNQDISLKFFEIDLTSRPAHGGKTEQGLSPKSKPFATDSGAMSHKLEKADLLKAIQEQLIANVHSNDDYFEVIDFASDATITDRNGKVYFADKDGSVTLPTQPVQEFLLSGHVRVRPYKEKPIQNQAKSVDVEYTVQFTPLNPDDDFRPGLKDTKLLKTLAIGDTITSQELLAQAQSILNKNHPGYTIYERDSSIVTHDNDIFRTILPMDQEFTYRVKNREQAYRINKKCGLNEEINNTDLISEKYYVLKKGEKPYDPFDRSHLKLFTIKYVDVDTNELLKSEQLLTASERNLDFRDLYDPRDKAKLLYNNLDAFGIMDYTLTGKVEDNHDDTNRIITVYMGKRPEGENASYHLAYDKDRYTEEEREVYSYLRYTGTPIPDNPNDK

In series [7] the target is T6, bi-pegylated NC 1-383 (SEQ ID NO 493), Cys at N - 1 and at C + 1 position in SK (1-383, G3).
T6 chain: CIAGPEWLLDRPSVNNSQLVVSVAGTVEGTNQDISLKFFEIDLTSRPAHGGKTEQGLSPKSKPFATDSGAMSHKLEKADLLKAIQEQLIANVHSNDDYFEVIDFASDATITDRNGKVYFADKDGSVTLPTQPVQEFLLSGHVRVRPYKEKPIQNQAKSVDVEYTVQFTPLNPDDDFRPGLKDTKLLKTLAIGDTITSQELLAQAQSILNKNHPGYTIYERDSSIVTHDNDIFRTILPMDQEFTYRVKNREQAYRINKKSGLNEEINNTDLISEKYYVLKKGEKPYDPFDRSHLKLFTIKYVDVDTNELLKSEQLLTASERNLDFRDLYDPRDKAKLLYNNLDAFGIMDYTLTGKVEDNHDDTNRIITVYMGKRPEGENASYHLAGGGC

B1: human plasminogen (HPG) (protein)
chain: KVYLSECKTGNGKNYRGTMSKTKNGITCQKWSSTSPHRPRFSPATHPSEGLEENYCRNPDNDPQGPWCYTTDPEKRYDYCDILECEEECMHCSGENYDGKISKTMSGLECQAWDSQSPHAHGYIPSKFPNKNLKKNYCRNPDRELRPWCFTTDPNKRWELCDIPRCTTPPPSSGPTYQCLKGTGENYRGNVAVTVSGHTCQHWSAQTPHTHNRTPENFPCKNLDENYCRNPDGKRAPWCHTTNSQVRWEYCKIPSCDSSPVSTEQLAPTAPPELTPVVQDCYHGDGQSYRGTSSTTTTGKKCQSWSSMTPHRHQKTPENYPNAGLTMNYCRNPDADKGPWCFTTDPSVRWEYCNLKKCSGTEASVVAPPPVVLLPDVETPSEEDCMFGNGKGYRGKRATTVTGTPCQDWAAQEPHRHSIFTPETNPRAGLEKNYCRNPDGDVGGPWCYTTNPRKLYDYCDVPQCAAPSFDCGKPQVEPKKCPGRVVGGCVAHPHSWPWQVSLRTRFGMHFCGGTLISPEWVLTAAHCLEKSPRPSSYKVILGAHQEVNLEPHVQEIEVSRLFLEPTRKDIALLKLSSPAVITDKVIPACLPSPNYVVADRTECFITGWGETQGTFGAGLLKEAQLPVIENKVCNRYEFLNGRVQSTELCAGHLAGGTDSCQGDSGGPLVCFEKDKYILQGVTSWGLGCARPNKPGVYVRVSRFVTWIEGVMRNN
One may read the Km as the concentration of substrate that gives half-maximal velocity. Regarding B1, the Km is 0.24 µM and 0.63 µM in series [1]; 0.4 µM in series [2]; 0.4 µM in series [3]; 0.5 µM in series [4]; 0.6 µM in series [5]; 0.5 µM in series [6]. The Km in series [7] worked out at 0.48 µM.
